Measured values reported in patent US20160272683A1 (Novo Nordisk, published 2016).
Values belong to the binder of their own block, whether it stands above or below them. Numbered stars: 1 amine (or outer) side, 2 acyl side, 3 side chain; on linkers, the order of the positions; unused ones are H or OH. Side chains are listed from the residue outwards. Ends that are not written are not given here. * marks the point of attachment. C20 diacid = O=C(O)CCCCCCCCCCCCCCCCCCC(=O)*; C18 diacid = O=C(O)CCCCCCCCCCCCCCCCC(=O)*; C16 diacid = O=C(O)CCCCCCCCCCCCCCC(=O)*; γGlu = O=C(O)[C@H](CCC(=O)[*:2])N[*:1]; C14 diacid = O=C(O)CCCCCCCCCCCCC(=O)*; AEEA = NCCOCCOCC(=O)O

How the values were obtained:
[1] = molecular target: T1, human amylin 3(a) receptor (human calcitonin receptor co-expressed with RAMP-3) (human, UniProt P30988 25-474; O60896 24-148, limits assumed); assay: cell-based or functional assay
T1 sequence (looked up) 1: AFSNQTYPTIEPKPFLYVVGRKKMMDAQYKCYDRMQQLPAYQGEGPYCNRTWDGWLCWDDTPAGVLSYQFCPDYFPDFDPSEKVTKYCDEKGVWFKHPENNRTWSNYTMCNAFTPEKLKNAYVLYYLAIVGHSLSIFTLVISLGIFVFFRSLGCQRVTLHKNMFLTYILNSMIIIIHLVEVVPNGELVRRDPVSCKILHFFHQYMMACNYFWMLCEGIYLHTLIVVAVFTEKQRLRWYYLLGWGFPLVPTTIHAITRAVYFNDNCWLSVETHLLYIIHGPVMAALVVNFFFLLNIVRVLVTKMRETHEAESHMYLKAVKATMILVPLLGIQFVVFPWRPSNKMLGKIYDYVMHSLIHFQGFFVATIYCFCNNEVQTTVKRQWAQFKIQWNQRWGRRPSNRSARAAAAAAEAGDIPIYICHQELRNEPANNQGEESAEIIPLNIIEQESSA
T1 sequence (looked up) 2: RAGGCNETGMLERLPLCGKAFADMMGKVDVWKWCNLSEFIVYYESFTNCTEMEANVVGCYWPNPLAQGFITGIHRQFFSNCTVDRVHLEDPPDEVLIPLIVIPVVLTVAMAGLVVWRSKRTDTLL

[2] = molecular target: T2, human calcitonin receptor (human, UniProt P30988 25-474); assay: cell-based or functional assay
T2 sequence (looked up): T1 sequence (looked up) 1

Binder: {C14 diacid}-ASELSTAALGRLSAELHELATLPRTETGSGSP-NH2 [[N-terminal(C14 diacid), des1, 30S, 31G]mimylin]
hAmylin-R funct. EC50 (pM) [1]: 7 pM | hCTR funct. EC50 (pM) [2]: 5 pM

B3: [N-terminal(C20 diacid-gGlu), des1, 23Y, 30S, 31G]mimylin (peptide)
peptide: {C20 diacid-γGlu}-ASELSTAALGRLSAELHELATYPRTETGSGSP-NH2
SMILES: CC(C)C[C@H](NC(=O)[C@H](C)NC(=O)[C@H](C)NC(=O)[C@@H](NC(=O)[C@H](CO)NC(=O)[C@H](CC(C)C)NC(=O)[C@H](CCC(=O)O)NC(=O)[C@H](CO)NC(=O)[C@H](C)NC(=O)CC[C@H](NC(=O)CCCCCCCCCCCCCCCCCCC(=O)O)C(=O)O)[C@@H](C)O)C(=O)NCC(=O)N[C@@H](CCCNC(=N)N)C(=O)N[C@@H](CC(C)C)C(=O)N[C@@H](CO)C(=O)N[C@@H](C)C(=O)N[C@@H](CCC(=O)O)C(=O)N[C@@H](CC(C)C)C(=O)N[C@@H](Cc1c[nH]cn1)C(=O)N[C@@H](CCC(=O)O)C(=O)N[C@@H](CC(C)C)C(=O)N[C@@H](C)C(=O)N[C@H](C(=O)N[C@@H](Cc1ccc(O)cc1)C(=O)N1CCC[C@H]1C(=O)N[C@@H](CCCNC(=N)N)C(=O)N[C@H](C(=O)N[C@@H](CCC(=O)O)C(=O)N[C@H](C(=O)NCC(=O)N[C@@H](CO)C(=O)NCC(=O)N[C@@H](CO)C(=O)N1CCC[C@H]1C(N)=O)[C@@H](C)O)[C@@H](C)O)[C@@H](C)O
hAmylin-R funct. EC50 (pM) [1]: 22 pM | hCTR funct. EC50 (pM) [2]: 23 pM

B4: [des1, 16K(C20 diacid-gGlu), 30S, 31G]mimylin (peptide)
peptide: ASELSTAALGRLSAK([γGlu-C20 diacid])LHELATLPRTETGSGSP-NH2
modifications: N-terminus assumed
SMILES: CC(C)C[C@H](NC(=O)[C@H](C)NC(=O)[C@H](C)NC(=O)[C@@H](NC(=O)[C@H](CO)NC(=O)[C@H](CC(C)C)NC(=O)[C@H](CCC(=O)O)NC(=O)[C@H](CO)NC(=O)[C@H](C)N)[C@@H](C)O)C(=O)NCC(=O)N[C@@H](CCCNC(=N)N)C(=O)N[C@@H](CC(C)C)C(=O)N[C@@H](CO)C(=O)N[C@@H](C)C(=O)N[C@@H](CCCCNC(=O)CC[C@H](NC(=O)CCCCCCCCCCCCCCCCCCC(=O)O)C(=O)O)C(=O)N[C@@H](CC(C)C)C(=O)N[C@@H](Cc1c[nH]cn1)C(=O)N[C@@H](CCC(=O)O)C(=O)N[C@@H](CC(C)C)C(=O)N[C@@H](C)C(=O)N[C@H](C(=O)N[C@@H](CC(C)C)C(=O)N1CCC[C@H]1C(=O)N[C@@H](CCCNC(=N)N)C(=O)N[C@H](C(=O)N[C@@H](CCC(=O)O)C(=O)N[C@H](C(=O)NCC(=O)N[C@@H](CO)C(=O)NCC(=O)N[C@@H](CO)C(=O)N1CCC[C@H]1C(N)=O)[C@@H](C)O)[C@@H](C)O)[C@@H](C)O
hAmylin-R funct. EC50 (pM) [1]: 22 pM | hCTR funct. EC50 (pM) [2]: 31 pM

B6: [des1, 4K(C20 diacid-gGlu), 30S, 31G]mimylin (peptide)
peptide: ASK([γGlu-C20 diacid])LSTAALGRLSAELHELATLPRTETGSGSP-NH2
modifications: N-terminus assumed
SMILES: CC(C)C[C@H](NC(=O)[C@H](C)NC(=O)[C@H](C)NC(=O)[C@@H](NC(=O)[C@H](CO)NC(=O)[C@H](CC(C)C)NC(=O)[C@H](CCCCNC(=O)CC[C@H](NC(=O)CCCCCCCCCCCCCCCCCCC(=O)O)C(=O)O)NC(=O)[C@H](CO)NC(=O)[C@H](C)N)[C@@H](C)O)C(=O)NCC(=O)N[C@@H](CCCNC(=N)N)C(=O)N[C@@H](CC(C)C)C(=O)N[C@@H](CO)C(=O)N[C@@H](C)C(=O)N[C@@H](CCC(=O)O)C(=O)N[C@@H](CC(C)C)C(=O)N[C@@H](Cc1c[nH]cn1)C(=O)N[C@@H](CCC(=O)O)C(=O)N[C@@H](CC(C)C)C(=O)N[C@@H](C)C(=O)N[C@H](C(=O)N[C@@H](CC(C)C)C(=O)N1CCC[C@H]1C(=O)N[C@@H](CCCNC(=N)N)C(=O)N[C@H](C(=O)N[C@@H](CCC(=O)O)C(=O)N[C@H](C(=O)NCC(=O)N[C@@H](CO)C(=O)NCC(=O)N[C@@H](CO)C(=O)N1CCC[C@H]1C(N)=O)[C@@H](C)O)[C@@H](C)O)[C@@H](C)O
hAmylin-R funct. EC50 (pM) [1]: 39 pM | hCTR funct. EC50 (pM) [2]: 34 pM

Binder: {C14 diacid-γGlu}-ASELSTAALGRLSAELHELATLPRTETGSGSP-NH2 [[N-terminal(C14 diacid-gGlu), des1, 30S, 31G]mimylin]
hAmylin-R funct. EC50 (pM) [1]: 6 pM | hCTR funct. EC50 (pM) [2]: 4 pM

The remaining lines, values ahead:

hAmylin-R funct. EC50 (pM) [1]: 10 pM | hCTR funct. EC50 (pM) [2]: 10 pM
Binder: {C16 diacid}-ASELSTAALGRLSAELHELATLPRTETGSGSP-NH2 [[N-terminal(C16 diacid), des1, 30S, 31G]mimylin]

hAmylin-R funct. EC50 (pM) [1]: 10 pM | hCTR funct. EC50 (pM) [2]: 10 pM
B1: [N-terminal(C18 diacid-gGlu), des1, 23Y, 30S, 31G]mimylin (peptide)
peptide: {C18 diacid-γGlu}-ASELSTAALGRLSAELHELATYPRTETGSGSP-NH2
SMILES: CC(C)C[C@H](NC(=O)[C@H](C)NC(=O)[C@H](C)NC(=O)[C@@H](NC(=O)[C@H](CO)NC(=O)[C@H](CC(C)C)NC(=O)[C@H](CCC(=O)O)NC(=O)[C@H](CO)NC(=O)[C@H](C)NC(=O)CC[C@H](NC(=O)CCCCCCCCCCCCCCCCC(=O)O)C(=O)O)[C@@H](C)O)C(=O)NCC(=O)N[C@@H](CCCNC(=N)N)C(=O)N[C@@H](CC(C)C)C(=O)N[C@@H](CO)C(=O)N[C@@H](C)C(=O)N[C@@H](CCC(=O)O)C(=O)N[C@@H](CC(C)C)C(=O)N[C@@H](Cc1c[nH]cn1)C(=O)N[C@@H](CCC(=O)O)C(=O)N[C@@H](CC(C)C)C(=O)N[C@@H](C)C(=O)N[C@H](C(=O)N[C@@H](Cc1ccc(O)cc1)C(=O)N1CCC[C@H]1C(=O)N[C@@H](CCCNC(=N)N)C(=O)N[C@H](C(=O)N[C@@H](CCC(=O)O)C(=O)N[C@H](C(=O)NCC(=O)N[C@@H](CO)C(=O)NCC(=O)N[C@@H](CO)C(=O)N1CCC[C@H]1C(N)=O)[C@@H](C)O)[C@@H](C)O)[C@@H](C)O

hAmylin-R funct. EC50 (pM) [1]: 28 pM | hCTR funct. EC50 (pM) [2]: 19 pM
B2: [des1, 19K(C20 diacid-gGlu), 30S, 31G]mimylin (peptide)
peptide: ASELSTAALGRLSAELHK([γGlu-C20 diacid])LATLPRTETGSGSP-NH2
modifications: N-terminus assumed
SMILES: CC(C)C[C@H](NC(=O)[C@H](C)NC(=O)[C@H](C)NC(=O)[C@@H](NC(=O)[C@H](CO)NC(=O)[C@H](CC(C)C)NC(=O)[C@H](CCC(=O)O)NC(=O)[C@H](CO)NC(=O)[C@H](C)N)[C@@H](C)O)C(=O)NCC(=O)N[C@@H](CCCNC(=N)N)C(=O)N[C@@H](CC(C)C)C(=O)N[C@@H](CO)C(=O)N[C@@H](C)C(=O)N[C@@H](CCC(=O)O)C(=O)N[C@@H](CC(C)C)C(=O)N[C@@H](Cc1c[nH]cn1)C(=O)N[C@@H](CCCCNC(=O)CC[C@H](NC(=O)CCCCCCCCCCCCCCCCCCC(=O)O)C(=O)O)C(=O)N[C@@H](CC(C)C)C(=O)N[C@@H](C)C(=O)N[C@H](C(=O)N[C@@H](CC(C)C)C(=O)N1CCC[C@H]1C(=O)N[C@@H](CCCNC(=N)N)C(=O)N[C@H](C(=O)N[C@@H](CCC(=O)O)C(=O)N[C@H](C(=O)NCC(=O)N[C@@H](CO)C(=O)NCC(=O)N[C@@H](CO)C(=O)N1CCC[C@H]1C(N)=O)[C@@H](C)O)[C@@H](C)O)[C@@H](C)O

hAmylin-R funct. EC50 (pM) [1]: 6 pM | hCTR funct. EC50 (pM) [2]: 2 pM
Binder: {C14 diacid}-EASELSTAALGRLSAELHELATLPRTETGPESP-NH2 [[N-terminal(C14 diacid)]mimylin]

hAmylin-R funct. EC50 (pM) [1]: 27 pM | hCTR funct. EC50 (pM) [2]: 7 pM
Binder: {C14 diacid-γGlu-γGlu-AEEA-AEEA-AEEA-AEEA}-EASELSTAALGRLSAELHELATLPRTETGPESP-NH2 [[N-terminal(C14 diacid-2xgGlu-4xOEG)]mimylin]

hAmylin-R funct. EC50 (pM) [1]: 20 pM | hCTR funct. EC50 (pM) [2]: 22 pM
B5: [N-terminal(C20 diacid-gGlu), 1A, 23Y, 30S, 31G]mimylin (peptide)
peptide: {C20 diacid-γGlu}-AASELSTAALGRLSAELHELATYPRTETGSGSP-NH2
SMILES: CC(C)C[C@H](NC(=O)[C@H](C)NC(=O)[C@H](C)NC(=O)[C@@H](NC(=O)[C@H](CO)NC(=O)[C@H](CC(C)C)NC(=O)[C@H](CCC(=O)O)NC(=O)[C@H](CO)NC(=O)[C@H](C)NC(=O)[C@H](C)NC(=O)CC[C@H](NC(=O)CCCCCCCCCCCCCCCCCCC(=O)O)C(=O)O)[C@@H](C)O)C(=O)NCC(=O)N[C@@H](CCCNC(=N)N)C(=O)N[C@@H](CC(C)C)C(=O)N[C@@H](CO)C(=O)N[C@@H](C)C(=O)N[C@@H](CCC(=O)O)C(=O)N[C@@H](CC(C)C)C(=O)N[C@@H](Cc1c[nH]cn1)C(=O)N[C@@H](CCC(=O)O)C(=O)N[C@@H](CC(C)C)C(=O)N[C@@H](C)C(=O)N[C@H](C(=O)N[C@@H](Cc1ccc(O)cc1)C(=O)N1CCC[C@H]1C(=O)N[C@@H](CCCNC(=N)N)C(=O)N[C@H](C(=O)N[C@@H](CCC(=O)O)C(=O)N[C@H](C(=O)NCC(=O)N[C@@H](CO)C(=O)NCC(=O)N[C@@H](CO)C(=O)N1CCC[C@H]1C(N)=O)[C@@H](C)O)[C@@H](C)O)[C@@H](C)O
